Reference: patent publication US20090130105A1 (Biogen, published 2009)
One block for each binder: values may come before it.

Legend:
human IGF-1R(1-903)-Fc [1] = target: T1, human IGF-1R(1-903)-Fc (human, UniProt P08069 31-933); assay: competition ELISA: antibody diluted in 320 nM human IGF-1 His, added to biotinylated hIGF-1R-Fc on streptavidin plates, bound IGF-1 His detected with anti-His-HRP (blocked ligand: IGF-1 His)
T1 construct: also called hIGF-1R-Fc; SDWT; not shown: human IgG1 Fc, C-terminal tag
T1 sequence (P08069 31-933): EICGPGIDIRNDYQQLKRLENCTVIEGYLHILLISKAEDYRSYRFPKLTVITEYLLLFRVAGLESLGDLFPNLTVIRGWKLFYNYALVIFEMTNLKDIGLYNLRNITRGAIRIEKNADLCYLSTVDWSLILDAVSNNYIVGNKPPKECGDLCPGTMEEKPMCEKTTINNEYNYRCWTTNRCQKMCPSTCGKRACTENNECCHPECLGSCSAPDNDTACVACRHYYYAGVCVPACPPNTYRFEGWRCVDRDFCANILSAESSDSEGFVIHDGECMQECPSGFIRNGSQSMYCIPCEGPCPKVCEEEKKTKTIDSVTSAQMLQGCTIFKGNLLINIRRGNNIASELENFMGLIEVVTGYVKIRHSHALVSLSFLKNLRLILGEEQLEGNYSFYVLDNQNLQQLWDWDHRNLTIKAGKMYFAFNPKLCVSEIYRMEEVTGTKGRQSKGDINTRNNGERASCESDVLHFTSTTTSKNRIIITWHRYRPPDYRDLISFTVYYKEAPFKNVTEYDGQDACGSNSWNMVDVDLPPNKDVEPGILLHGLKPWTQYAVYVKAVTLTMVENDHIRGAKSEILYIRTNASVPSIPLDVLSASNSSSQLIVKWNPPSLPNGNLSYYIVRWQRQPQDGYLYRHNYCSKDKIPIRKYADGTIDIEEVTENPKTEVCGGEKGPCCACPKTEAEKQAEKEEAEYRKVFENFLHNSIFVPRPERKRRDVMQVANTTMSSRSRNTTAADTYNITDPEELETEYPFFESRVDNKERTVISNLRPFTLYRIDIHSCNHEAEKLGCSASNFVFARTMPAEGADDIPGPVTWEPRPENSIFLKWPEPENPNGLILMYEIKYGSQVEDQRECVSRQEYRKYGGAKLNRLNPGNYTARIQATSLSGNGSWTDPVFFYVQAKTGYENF
Method: (§1) hIGF-1R-Fc was biotinylated using EZ-Link Sulfo-NHS-LC-Biotin according to the protocol provided by the manufacturer (Pierce Cat. No. 21335). Biotinylated human IGF-1R Fc (NB12453-9) at 5 μg/ml was added to the wells of SigmaScreen streptavidin-coated 96-well plates (Sigma, Cat. No. M5432-5EA) at 100 μL/well and incubated overnight at 2-8° C. The plates were then washed four times with 200 μL/well PBST. […] The dilutions were added to the plates in duplicate at 100 μL/well and the plates were incubated at RT for 1 hour. The plates were then washed four times with 200 μL/well PBST. An HRP-conjugated anti-Histag antibody (Penta-His HRP Conjugate, QIAGEN, Cat. No. 1014992) was diluted 1:1000 in PBST and added to plates at 100 μL/well, and the plates were incubated at RT for one hour. The plates were then washed four times with 200 μL/well PBST. SureBlue Reserve TMB Microwell Peroxidase Substrate (KPL, Cat. No. 53-00-01) was added to plates at 100 μL/well followed by 1% phosphoric acid at 100 μL/well once the desired reaction was observed. The absorbance of each well was determined at 450 nm, and the results were normalized and plotted against the log of antibody concentration.

human IGF-1R(1-903)-Fc [2] = target: T1, human IGF-1R(1-903)-Fc; assay: competition ELISA: antibody diluted in human IGF-2 His solution, added to biotinylated hIGF-1R-Fc on streptavidin plates, bound IGF-2 His detected with anti-His-HRP (blocked ligand: IGF-2 His)
Method: as §1

[3] = target: T2, hIGF-1R-Fc mutant SD103 (D461A, V462T) (human, UniProt P08069 31-933); assay: SPR, immobilized antibody
T2 construct: not shown: human IgG1 Fc, C-terminal tag
T2 sequence (P08069 31-933 D491A/V492T): as the sequence (P08069 31-933) above, with D461A, V462T counted along it
Method: (§2) Surface plasmon resonance (SPR) experiments were performed on a Biacore 3000 instrument set to 25° C. […] The antibody sensorchip surfaces were prepared by injecting each antibody (diluted 100 μg/mL in 10 mM Acetate, pH 4.0) over EDC/NHS-activated sensorchip surfaces according to the standard protocol of the manufacturer. […] Both hIGF-1R-Fc and mIGF-1R-Fc proteins oligomerize due to the incorporation of two separate homodimeric regions (IGF-1R and IgG1-Fc). […] After, completion of the receptor-Fc loading step, flow rates were elevated to 5 μl/min. […] Dissociation was measured for 7 minutes after the antibody injections were complete. Finally, the flow rate was elevated to 30 μL/min and the chip surfaces were regenerated by 2×10 μL injections of 0.1 M glycine, pH 2.

[4] = target: T3, hIGF-1R-Fc mutant SD203 (N254A) (human, UniProt P08069 31-933); assay: SPR, antibody over captured mutant
T3 construct: not shown: human IgG1 Fc, C-terminal tag
T3 sequence (P08069 31-933 N284A): as the sequence (P08069 31-933) above, with N254A counted along it
Method: as §2

[5] = target: T4, hIGF-1R-Fc mutant SD207 (G265Y) (human, UniProt P08069 31-933); assay: SPR, antibody over captured mutant
T4 construct: not shown: human IgG1 Fc, C-terminal tag
T4 sequence (P08069 31-933 G295Y): as the sequence (P08069 31-933) above, with G265Y counted along it
Method: as §2

human IGF-1R(1-903)-Fc [6] = target: T1, human IGF-1R(1-903)-Fc; assay: IGF-1 blocking ELISA at 20 nM IGF-1 His on biotinylated hIGF-1R-Fc
Method: (§3) The dilutions were added to the plates in duplicate at 100 μL/well and the plates were incubated at RT for 1 hour. The plates were then washed four times with 200 μL/well PBST. An HRP-conjugated anti-Histag antibody (Penta-His HRP Conjugate, QIAGEN, Cat. No. 1014992) was diluted 1:1000 in PBST and added to plates at 100 μL/well, and the plates were incubated at RT for one hour. The plates were then washed four times with 200 μL/well PBST. SureBlue Reserve TMB Microwell Peroxidase Substrate (KPL, Cat. No. 53-00-01) was added to plates at 100 μL/well followed by 1% phosphoric acid at 100 μL/well once the desired reaction was observed. The absorbance of each well was determined at 450 nm, and the results were normalized and plotted against the log of antibody concentration.
(§4) Ligand Blocking Properties.

[7] = target: T5, human IGF-1R on H322M non-small cell lung cancer cells (human, UniProt P08069 31-1367); assay: flow cytometry on H322M cells, anti-human Fc PE secondary (FIG. 55B)
T5 construct: Endogenous receptor of the tumor cell line; also called cell surface IGF-1R
T5 sequence (P08069 31-1367, stated change not applied): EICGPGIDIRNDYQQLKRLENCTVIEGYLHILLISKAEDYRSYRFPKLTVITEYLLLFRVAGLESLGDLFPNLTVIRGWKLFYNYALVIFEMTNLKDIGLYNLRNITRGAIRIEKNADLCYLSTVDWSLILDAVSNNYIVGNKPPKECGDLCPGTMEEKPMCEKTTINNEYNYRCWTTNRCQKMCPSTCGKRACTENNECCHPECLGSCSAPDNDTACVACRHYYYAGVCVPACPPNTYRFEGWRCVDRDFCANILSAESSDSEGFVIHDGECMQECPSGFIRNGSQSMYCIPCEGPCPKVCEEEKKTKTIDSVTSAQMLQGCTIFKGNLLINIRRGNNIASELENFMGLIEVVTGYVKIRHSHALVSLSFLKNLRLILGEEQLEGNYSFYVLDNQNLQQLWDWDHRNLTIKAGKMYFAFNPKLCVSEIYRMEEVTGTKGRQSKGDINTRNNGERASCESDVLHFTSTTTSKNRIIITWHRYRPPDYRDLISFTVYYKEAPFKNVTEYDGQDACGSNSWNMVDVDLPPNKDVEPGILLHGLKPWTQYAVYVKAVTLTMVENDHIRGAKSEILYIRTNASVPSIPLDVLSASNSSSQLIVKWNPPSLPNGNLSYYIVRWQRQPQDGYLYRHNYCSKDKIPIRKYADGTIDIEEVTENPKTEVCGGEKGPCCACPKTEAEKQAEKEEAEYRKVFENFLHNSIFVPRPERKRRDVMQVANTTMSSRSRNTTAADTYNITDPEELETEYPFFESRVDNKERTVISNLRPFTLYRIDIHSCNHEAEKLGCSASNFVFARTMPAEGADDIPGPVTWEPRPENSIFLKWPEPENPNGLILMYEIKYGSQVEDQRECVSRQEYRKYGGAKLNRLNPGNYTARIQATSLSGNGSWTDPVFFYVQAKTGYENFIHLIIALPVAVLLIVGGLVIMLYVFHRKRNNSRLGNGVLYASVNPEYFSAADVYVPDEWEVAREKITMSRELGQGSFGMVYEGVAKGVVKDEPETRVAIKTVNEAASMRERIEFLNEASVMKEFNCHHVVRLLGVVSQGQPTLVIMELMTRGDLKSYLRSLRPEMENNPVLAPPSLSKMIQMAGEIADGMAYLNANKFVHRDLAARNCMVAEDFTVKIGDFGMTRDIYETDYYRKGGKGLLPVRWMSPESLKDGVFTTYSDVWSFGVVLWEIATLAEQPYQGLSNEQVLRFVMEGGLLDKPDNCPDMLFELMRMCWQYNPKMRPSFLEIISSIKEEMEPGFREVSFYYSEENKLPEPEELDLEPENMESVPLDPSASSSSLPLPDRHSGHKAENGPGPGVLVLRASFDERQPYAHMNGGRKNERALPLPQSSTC
Method: (§5) Cell lines were routinely cultured no greater than 20 passages. Flow cyotometric analysis of antibody binding to human cancer cells. Cells were lifted with cell dissociation buffer (Gibco catalog #13151-014), counted, washed and adjusted to 5×10⁶ cells/ml. Cells (2.5×10⁵; 50 uL) were added to each well of a 96-well round bottom plate (Costar #3799). Purified antibodies were tested at a starting concentration of 300 nM with serial half-log dilutions in FACS buffer. FACS buffer used throughout the assay was PBS (without Ca++/Mg++) containing 5% FBS. Samples were incubated on ice for 30 minutes, washed 3× with 200 uL FACS buffer and centrifuged at 1200 rpm for 3 minutes at 4° C. C2B8 (rituximab, IgG1) was used as a negative control. […] Samples were incubated for an additional 30 minutes on ice, shielded from light. Cells were washed as described above and resuspended in 100 μl FACS buffer containing propidium iodide (PI) for dead cell exclusion (BD Pharmingen, catalog# 51-66211E or 556463; use at 1:500 final in FACS buffer). Samples were run in triplicate using the FACSArray flow cytometer (Becton Dickinson) with 5000 live events collected per sample. Data analysis was performed using the GraphPad Prism version 5.0 software (GraphPad Software Inc., 11452 El Camino Real #215, San Diego, Calif. 92130). Results. […]

human IGF-1R(1-903)-Fc [8] = target: T1, human IGF-1R(1-903)-Fc; assay: IGF-2 blocking ELISA: antibody titrated in 640 nM IGF-2 His on biotinylated hIGF-1R-Fc on streptavidin plates, bound ligand detected with anti-His-HRP
sIGF-1R(1-903) [9] = target: T6, sIGF-1R(1-903) (human, UniProt P08069 31-933); assay: ITC, 25 °C, antibody into sIGF-1R(1-903)
T6 construct: also called soluble IGF-1R ectodomain
T6 sequence (P08069 31-933): as the sequence (P08069 31-933) above
Method: (§6) Isothermal Titration Calorimetry (ITC). […] The reagents were co-dialyzed against PBS, pH 7.2. The protein solutions were adjusted to the concentrations listed above by dilution using PBS dialysate. […] The protein solutions were prepared as described above for the MAb binding experiments. All ITC experiments were performed on an ITC₂₀₀ microcalorimeter (MicroCal, LLC) at 25° C. […] IGF-1R bispecific antibodies. A four minute equilibration period was used between all injections with an initial delay of 60 seconds. Numerical integration of the data was performed using the ITC data analysis software supplied by MicroCal (Origin). ΔHA° (T) values were calculated based on the difference between the average heat liberated/absorbed during the binding phase of the injections and the average heat of dilution found once the receptor, IGF-1R, was saturated with MAb or BsAb.

[10] = target: T5, human IGF-1R on H322M non-small cell …; assay: cell-based or functional assay
human IGF-1R(1-903)-Fc [11] = target: T1, human IGF-1R(1-903)-Fc; assay: ELISA, blocking of 320 nM IGF-1 His on biotinylated hIGF-1R-Fc
Method: as §1

[12] = target: T7, human IGF-1R(1-902)-His10 (human, UniProt P08069 31-932); assay: SPR competition (Biacore 3000): soluble antibody titrated into 40 nM hIGF-1R-His, mixture injected over immobilized M14-G11
T7 construct: Bought from R&D Systems (305-GR-050); also called hIGF-1R-His10; hIGF-1R-His
T7 sequence (P08069 other isoform, or with tags, fused parts or gaps): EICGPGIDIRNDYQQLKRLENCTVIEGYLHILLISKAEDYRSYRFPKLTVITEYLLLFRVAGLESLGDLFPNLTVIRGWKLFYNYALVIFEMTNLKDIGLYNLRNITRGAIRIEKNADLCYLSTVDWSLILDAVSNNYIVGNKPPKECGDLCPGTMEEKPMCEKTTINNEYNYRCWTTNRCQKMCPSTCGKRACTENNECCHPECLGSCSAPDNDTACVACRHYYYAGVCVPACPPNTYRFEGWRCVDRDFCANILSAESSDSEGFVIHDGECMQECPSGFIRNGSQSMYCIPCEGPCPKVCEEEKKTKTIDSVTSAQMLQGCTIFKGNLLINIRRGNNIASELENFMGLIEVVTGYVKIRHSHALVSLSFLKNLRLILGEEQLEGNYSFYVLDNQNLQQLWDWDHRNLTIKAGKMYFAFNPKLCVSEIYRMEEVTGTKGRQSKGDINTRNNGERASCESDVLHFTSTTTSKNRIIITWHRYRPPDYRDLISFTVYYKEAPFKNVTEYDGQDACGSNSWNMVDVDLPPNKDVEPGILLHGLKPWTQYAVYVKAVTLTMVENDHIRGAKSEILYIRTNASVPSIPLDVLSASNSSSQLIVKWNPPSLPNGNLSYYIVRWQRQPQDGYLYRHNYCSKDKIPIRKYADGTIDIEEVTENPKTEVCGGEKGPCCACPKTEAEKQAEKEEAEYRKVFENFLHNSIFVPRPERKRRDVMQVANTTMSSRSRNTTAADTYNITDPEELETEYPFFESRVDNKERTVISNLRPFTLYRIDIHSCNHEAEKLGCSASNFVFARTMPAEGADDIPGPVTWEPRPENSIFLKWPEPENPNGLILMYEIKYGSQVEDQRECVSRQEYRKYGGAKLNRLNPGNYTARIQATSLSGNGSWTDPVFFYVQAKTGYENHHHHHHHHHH
Method: Regeneration was achieved by three 10 μL injections of 0.1 M glycine, pH 2.0. 100% hIGF-1R-His binding to each antibody was determined by the signal above the baseline under mass transport-limiting conditions 60 seconds into the injection.

human IGF-1R(1-903)-Fc [13] = target: T1, human IGF-1R(1-903)-Fc; assay: ELISA, blocking of IGF-2 His (640 nM by the table head) on biotinylated hIGF-1R-Fc
[14] = target: T5, human IGF-1R on H322M non-small cell …; assay: flow cytometry on H322M cells, anti-human Fab PE secondary (FIG. 55A)
Method: as §5

sIGF-1R(1-903) [15] = target: T6, sIGF-1R(1-903); assay: ITC series titration, G11 MAb into sIGF-1R(1-903) holding excess C06 MAb
Method: The protein solutions were prepared as described above for the MAb binding experiments. All ITC experiments were performed on an ITC₂₀₀ microcalorimeter (MicroCal, LLC) at 25° C. […] IGF-1R bispecific antibodies. A four minute equilibration period was used between all injections with an initial delay of 60 seconds. Numerical integration of the data was performed using the ITC data analysis software supplied by MicroCal (Origin). ΔHA° (T) values were calculated based on the difference between the average heat liberated/absorbed during the binding phase of the injections and the average heat of dilution found once the receptor, IGF-1R, was saturated with MAb or BsAb.
Both the dimeric receptor and the bivalent MAbs contain two potential binding sites.

[16] = target: T5, human IGF-1R on H322M non-small cell …; assay: flow cytometry on H322M cells
Method: as §5

sIGF-1R(1-903) [17] = target: T6, sIGF-1R(1-903); assay: ITC, 25 °C; footnote a: affinity too high for accurate measurement
Method: as §6

sIGF-1R(1-903) [18] = target: T6, sIGF-1R(1-903); assay: equilibrium solution-phase SPR, free sIGF-1R(1-903) read on G11 surface
[19] = target: T8, hIGF-1R-Fc mutant SD201 (D248A) (human, UniProt P08069 31-933); assay: SPR, Fab over captured mutant
T8 construct: not shown: human IgG1 Fc, C-terminal tag
T8 sequence (P08069 31-933 D278A): as the sequence (P08069 31-933) above, with D248A counted along it
Method: as §2

[20] = target: T9, hIGF-1R-Fc mutant SD202 (D250S) (human, UniProt P08069 31-933); assay: SPR, Fab over captured mutant
T9 construct: not shown: human IgG1 Fc, C-terminal tag
T9 sequence (P08069 31-933 D280S): as the sequence (P08069 31-933) above, with D250S counted along it
Method: as §2

human IGF-1R(1-903)-Fc [21] = target: T1, human IGF-1R(1-903)-Fc; assay: IGF-1 blocking ELISA: antibody titrated in 320 nM IGF-1 His on biotinylated hIGF-1R-Fc on streptavidin plates, bound ligand detected with anti-His-HRP
Method: as §3, §4

[22] = target: T10, hIGF-1R-Fc mutant SD012 (E303G) (human, UniProt P08069 31-933); assay: SPR, Fab over captured mutant hIGF-1R-Fc
T10 construct: not shown: human IgG1 Fc, C-terminal tag
T10 sequence (P08069 31-933 E333G): as the sequence (P08069 31-933) above, with E303G counted along it
Method: as §2

[23] = target: T11, hIGF-1R-Fc mutant SD008 (S257F) (human, UniProt P08069 31-933); assay: SPR, Fab over captured mutant hIGF-1R-Fc
T11 construct: not shown: human IgG1 Fc, C-terminal tag
T11 sequence (P08069 31-933 S287F): as the sequence (P08069 31-933) above, with S257F counted along it
Method: as §2

- IC50 (read off the curve) (human IGF-1R(1-903)-Fc [1]): ~5 nM
- IC50 (read off the curve) (human IGF-1R(1-903)-Fc [2]): ~1 nM
- binding result [3]: no binding
B1: M14-C03 antibody (antibody, V domains shown)
VH: EVQLLESGGGLVQPGGSLRLSCAASGFTFSKYMMSWVRQAPGKGLEWVSYISPSGGLTWYADSVKGRFTISRDNSKNTLYLQMNSLRAEDTAVYYCARDGARGYGMDVWGQGTTVTVSS
VL: DIQMTQSPATLSLSPGERATLSCRASQSVSSYLAWYQQKPGQAPRLLIYDASNRATGIPARFSGSGSGTDFTLTISSLEPEDFAVYYCQQRSNWPPEVTFGPGTKVDIK
notes: Fully human full-length antibody (ATCC PTA-7445); also called M14.C03.G4.P.agly

B2: P1E2 chimeric antibody (antibody, V domains shown)
VH: QVQLQQPGAELVKPGASVKLSCKASGYTFTSYWMHWVKQRPGQGLEWIGEINPTYGRSNYNEKFKSKATLTVDKSSSTAYMQLSSLTSEDSAVYYCARLVRLRYFDVWGAGTTVTVSS
VL: DIVMTQAAFSNPVTLGTSASISCRSSKSLLHSNGITYLYWYLQKPGQSPQLLIYQMSNLASGVPDRFSSSGSGTDFTLRISRVEAEDVGVYYCAQNLELPYTFGGGTKLEIK
notes: also called DE12 Chimera; P1E2.3B12 variable domains
- binding result [4]: no binding (tested: up to 30 nM antibody)
- binding result [5]: no binding (tested: up to 30 nM antibody)

- IC50 (read off the curve) (human IGF-1R(1-903)-Fc [6]): ~2 nM
- EC50 [7]: 0.72 nM
- IC50 (read off the curve) (human IGF-1R(1-903)-Fc [8]): ~2 nM
- ΔH° (sIGF-1R(1-903) [9]): -26.6 kcal/mol
- reduction of surface IGF-1R after 24 hours (FACS, H322M cells) [10]: > 70%
- IC50 (human IGF-1R(1-903)-Fc [11]): 13 nM
- IC50 (read off the curve) [12]: ~20 nM
- IC50 (human IGF-1R(1-903)-Fc [13]): 7.9 nM
- EC50 [14]: 0.44 nM
- ΔH° (sIGF-1R(1-903) [15]): -16.2 kcal/mol
- EC50 [16]: < 1 nM
- -TΔS (sIGF-1R(1-903) [17]): 14.8 kcal/mol
- Kd (sIGF-1R(1-903) [17]): 6 nM
- ΔG (sIGF-1R(1-903) [17]): -11.2 kcal/mol
- Kd (sIGF-1R(1-903) [18]): 0.1 nM
- n (#G11 specific binding sites) (sIGF-1R(1-903) [18]): 1.1
B3: M14-G11 antibody (antibody, V domains shown)
VH: EVQLLESGGGLVQPGGSLRLSCAASGFTFSNYPMYWVRQAPGKGLEWVSRISSSGGRTVYADSVKGRFTISRDNSKNTLYLQMNSLRAEDTAVYYCARDRWSRSAAEYGLGGYWGQGTLVTVSS
VL: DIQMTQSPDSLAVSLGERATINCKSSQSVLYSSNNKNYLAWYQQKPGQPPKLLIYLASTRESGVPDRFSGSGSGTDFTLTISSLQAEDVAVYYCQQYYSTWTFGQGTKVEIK
notes: Fully human full-length antibody; also called M14.G11.G4.P.agly; G11.G4P.agly

- binding result [19]: no binding (tested: up to 30 nM Fab)
- binding result [20]: no binding (tested: up to 30 nM Fab)
- IC50 (read off the curve) (human IGF-1R(1-903)-Fc [21]): ~6 nM
- fold loss in affinity (KD) against wild type [22]: ~3 fold
- fold loss in affinity (KD) against wild type [23]: ~3 fold
- Kd (sIGF-1R(1-903) [18]): 4 nM
- n (#G11 specific binding sites) (sIGF-1R(1-903) [18]): 1.7
B4: M14-G11 Fab (Fab, V domains shown)
VH: B3 VH
VL: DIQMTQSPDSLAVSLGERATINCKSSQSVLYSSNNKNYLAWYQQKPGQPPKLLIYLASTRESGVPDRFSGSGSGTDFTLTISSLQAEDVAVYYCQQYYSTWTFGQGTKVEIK
notes: Enzymatically derived Fab
